The data set concerns the target T1, PIF4 (Arabidopsis thaliana, UniProt Q8W2F3 1-430).
T1 sequence: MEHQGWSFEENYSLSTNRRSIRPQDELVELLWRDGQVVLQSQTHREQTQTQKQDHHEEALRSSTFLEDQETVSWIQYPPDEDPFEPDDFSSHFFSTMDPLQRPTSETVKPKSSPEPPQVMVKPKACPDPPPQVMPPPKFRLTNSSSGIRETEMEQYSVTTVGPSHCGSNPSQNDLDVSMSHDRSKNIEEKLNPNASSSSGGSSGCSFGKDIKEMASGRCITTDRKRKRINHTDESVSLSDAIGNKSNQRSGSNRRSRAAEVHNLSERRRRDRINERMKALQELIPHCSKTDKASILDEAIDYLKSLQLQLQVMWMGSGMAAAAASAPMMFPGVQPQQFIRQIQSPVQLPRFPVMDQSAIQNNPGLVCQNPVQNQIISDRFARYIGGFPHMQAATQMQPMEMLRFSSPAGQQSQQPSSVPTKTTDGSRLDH
Put plainly: EMSA.

B1: YUC8pro (WT) (dsDNA)
DNA 1: TCTTTTTCTTCCCCACGTGGCTTCCTCTCGTTGGTCCCACAA
DNA 2: TTGTGGGACCAACGAGAGGAAGCCACGTGGGGAAGAAAAAGA
Take B1: the binding result is given as “binds”.
